Test results reported in the supplement of paper PMC9233669.
Variants at the floor of the assay were thinned out.

Assays:
[1] = tested on: biotinyl-Phe-oxazolone; assay: self-aminoacylation, catalytic enhancement (BFO) (fold over background); higher = more active; k-Seq, kA / k0A0; sequences stand for … in GGGAAUGGAUCCACAUCUACGAAUUC…UUCACUGCAGACUUGACGAAGCUG
Summary of the method: (§1)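 Catalytic enhancement equals the median kA over the uncatalyzed rate, the latter read from the low-activity peak of a bimodal Gaussian fit. Values of kA came from fitting each sequence's fraction reacted to a pseudo-first-order model, with 1000 bootstraps. Reacted RNA was captured with streptavidin and quantified by triplicate qPCR and Illumina sequencing after 90 minutes at room temperature with 2–1250 μM biotinyl-aminoacyl-oxazolone and 0.43 μM mutagenized RNA pools bearing a 21-nt variable region.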

[2] = tested on: biotinyl-Ile-oxazolone; assay: self-aminoacylation, catalytic enhancement (BIO) (fold over background); higher = more active; k-Seq, kA / k0A0; sequences stand for … in GGGAAUGGAUCCACAUCUACGAAUUC…UUCACUGCAGACUUGACGAAGCUG
Summary of the method: as §1

[3] = tested on: biotinyl-Val-oxazolone; assay: self-aminoacylation, catalytic enhancement (BVO) (fold over background); higher = more active; k-Seq, kA / k0A0; sequences stand for … in GGGAAUGGAUCCACAUCUACGAAUUC…UUCACUGCAGACUUGACGAAGCUG
Summary of the method: as §1

[4] = tested on: biotinyl-Trp-oxazolone; assay: self-aminoacylation, catalytic enhancement (BWO) (fold over background); higher = more active; k-Seq, kA / k0A0; sequences stand for … in GGGAAUGGAUCCACAUCUACGAAUUC…UUCACUGCAGACUUGACGAAGCUG
Summary of the method: as §1

[5] = tested on: biotinyl-Met-oxazolone; assay: self-aminoacylation, catalytic enhancement (BMO) (fold over background); higher = more active; k-Seq, kA / k0A0; sequences stand for … in GGGAAUGGAUCCACAUCUACGAAUUC…UUCACUGCAGACUUGACGAAGCUG
Summary of the method: as §1

[6] = tested on: biotinyl-Leu-oxazolone; assay: self-aminoacylation, catalytic enhancement (BLO) (fold over background); higher = more active; k-Seq, kA / k0A0; sequences stand for … in GGGAAUGGAUCCACAUCUACGAAUUC…UUCACUGCAGACUUGACGAAGCUG
Summary of the method: as §1

Sequence	self-aminoacylation [1]	self-aminoacylation [2]	self-aminoacylation [3]	self-aminoacylation [4]	self-aminoacylation [5]	self-aminoacylation [6]
AUUCUCCUAGGUCAUCUGGUG [Fam2.2 aminoacylation ribozyme variant]	30	3.03	2.91	4.16	4.5	5.43
GUACUCCAAACAAUCGGUCUG [Fam1A.1 aminoacylation ribozyme variant]	2.05	1.06	1.04	1.84	0.967	0.944
AUUAGCCUGGUCAUAGAGUGA [Fam2.1 aminoacylation ribozyme variant]	18.4	2.96	3.18	7.07	4.83	5.43
AUUCACCUAGGUAAUCAGGUG [Fam2.2 aminoacylation ribozyme variant]	1.21	0.967	0.989	0.933	1.25	1.31
CUACUUCCAACAAUAGGUCUG [Fam1A.1 aminoacylation ribozyme variant]	0.659	0.744	0.688	0.417	0.562	0.578
CCACACUUCAAGCAACCAGUC [Fam1B.1 aminoacylation ribozyme variant]	1.26	1.08	0.941	0.79	1.04	0.725
AAGUUUCCUAGUAGUCGCAAG [Fam3.1 aminoacylation ribozyme variant]	1.27	1.12	1.44	0.668	1.2	1.06
CCACACUCCAAGCAAUCGGUA [Fam1B.1 aminoacylation ribozyme variant]	0.936	1.15	1.34	1.25	0.699	1.27
AUUACCCUGGUCAUCGCAUGA [Fam2.1 aminoacylation ribozyme variant]	13.8	2.01	1.75	3.77	3.2	3.5
CCACACUUCUAGCAAUCGAUC [Fam1B.1 aminoacylation ribozyme variant]	0.626	0.556	0.716	0.432	0.447	0.457
AAUUUUGCUAGUAGUCGCAAG [Fam3.1 aminoacylation ribozyme variant]	2.34	2.02	1.36	1.71	1.77	1.56
AUUCACGUAGGUCAGCGGGUG [Fam2.2 aminoacylation ribozyme variant]	16.1	2.48	2.48	2.71	2.52	3.04
AUCCACCUAGCUCAUCGGGUG [Fam2.2 aminoacylation ribozyme variant]	23.3	2.2	2.89	2.55	3.28	2.55
CUACUUCAAACUAUCGCUCUG [Fam1A.1 aminoacylation ribozyme variant]	0.781	0.732	0.786	0.664	0.609	0.678
AUUCUCCUAGAUCAUCGGGUG [Fam2.2 aminoacylation ribozyme variant]	34.7	3.28	2.68	4.66	4.32	5.3
AAGUUGGCUAAUAAUCGCAAG [Fam3.1 aminoacylation ribozyme variant]	2.15	1.72	1.67	2.04	1.29	1.34
UCACACUUCAAGCAAUCCGUC [Fam1B.1 aminoacylation ribozyme variant]	1.15	0.955	1.25	1.01	0.667	0.591
CUACUUCAAACAACCGUUCUG [Fam1A.1 aminoacylation ribozyme variant]	0.558	0.723	0.676	0.515	0.611	0.625
AUUCACCUAGGACAUCGGGUC [Fam2.2 aminoacylation ribozyme variant]	0.549	1.22	1.25	0.858	0.87	1.42
CCAAUUCAAACAAUCGGUCUG [Fam1A.1 aminoacylation ribozyme variant]	6.78	1.11	1.11	5.22	1.02	1.16
AAAUUUGCUACUAGUCGCAAG [Fam3.1 aminoacylation ribozyme variant]	1.86	2.05	1.63	2.54	1.96	1.59
CUACUUCAAACAAACGAUCUG [Fam1A.1 aminoacylation ribozyme variant]	0.828	0.693	0.779	0.336	0.728	0.569
CCGAACUUCAAGCAAUCGGUC [Fam1B.1 aminoacylation ribozyme variant]	34.4	1.26	1.54	20.6	1.43	1.68
CUACUUCAAACCAUCGGCCUG [Fam1A.1 aminoacylation ribozyme variant]	1.51	1.82	1.94	1.71	1.63	1.45
AACUUUGCUAAUAGUCGGAAG [Fam3.1 aminoacylation ribozyme variant]	3.03	1.43	1.4	1.49	1.38	1.15
CCACGCUUCAAGCAAUCCGUC [Fam1B.1 aminoacylation ribozyme variant]	1.34	0.754	1.1	1.07	0.507	0.648

Sequence	self-aminoacylation [1]	self-aminoacylation [2]	self-aminoacylation [3]	self-aminoacylation [4]	self-aminoacylation [5]	self-aminoacylation [6]
AAGUUUGCUGAUUGUCGCAAG [Fam3.1 aminoacylation ribozyme variant]	1.02	0.948	1.02	1.37	1.09	1.11
CUAAUUCAAACCAUCGGUCUG [Fam1A.1 aminoacylation ribozyme variant]	0.795	0.967	0.848	0.589	0.817	0.949
AAGCUCGCUAAUAGUCGCAAG [Fam3.1 aminoacylation ribozyme variant]	3.66	2.09	1.95	2.2	1.75	2.49
CUACUUCAAACAAUAGGACUG [Fam1A.1 aminoacylation ribozyme variant]	0.544	0.633	0.625	0.515	0.6	0.585
AUUCACUUAUGUCAUCGGGUG [Fam2.2 aminoacylation ribozyme variant]	42.6	3.42	3.08	5.18	5.5	7.31
AGUCACCUAGGUCUUCGGGUG [Fam2.2 aminoacylation ribozyme variant]	56.4	6.51	6.48	8.99	6.75	8.46
AUCCACCUAGGUCACCGGGUG [Fam2.2 aminoacylation ribozyme variant]	40.4	4.14	4.47	6.67	5.52	6.1
AGUCACCUAGGACAUCGGGUG [Fam2.2 aminoacylation ribozyme variant]	26.6	4.13	5.02	6.31	4.24	4.11
CCACACUUCCAGUAAUCGGUC [Fam1B.1 aminoacylation ribozyme variant]	0.618	1.02	1.1	0.792	0.791	0.829
CCACACUUCAGGCAAUCGGGC [Fam1B.1 aminoacylation ribozyme variant]	11	2.46	3.35	2.21	1.37	2.45
AGGUUUGCUAAUAGUAGCAAG [Fam3.1 aminoacylation ribozyme variant]	1.05	1.49	1.22	2.18	1.41	1.43
ACGUGUGCUAAUAGUCGCAAG [Fam3.1 aminoacylation ribozyme variant]	4.86	1.6	1.28	1.63	1.62	1.68
CCACACUUCGAGCAAUAGGUC [Fam1B.1 aminoacylation ribozyme variant]	0.533	0.703	0.785	0.361	0.588	0.446
AUACUUCAAACAAUCGGUAUG [Fam1A.1 aminoacylation ribozyme variant]	3.52	0.925	0.744	2.3	0.732	0.732
AUUGCCCUGGUCAUCGACUGA [Fam2.1 aminoacylation ribozyme variant]	1.08	0.899	0.951	1.35	0.941	0.735
AUUCACGUAAGUCAUCGGGUG [Fam2.2 aminoacylation ribozyme variant]	148	9.9	10.4	13.3	18.3	20.4
CUACUUCUAACCAUCGGUCUG [Fam1A.1 aminoacylation ribozyme variant]	0.859	0.703	0.761	0.45	0.659	0.653
AUUACACUGGACAUCGAGUGA [Fam2.1 aminoacylation ribozyme variant]	14.9	3.23	2.87	6.45	5.83	6.11
AUUCACCUAGGUCAUCGGUUG [Fam2.2 aminoacylation ribozyme variant]	1.02	1	1.03	0.932	1.01	1.11
CCACACUUCAUGCAAUCGAUC [Fam1B.1 aminoacylation ribozyme variant]	0.923	0.552	0.721	0.336	0.528	0.489
AUCACCGUGGUCAUCGAGUGA [Fam2.1 aminoacylation ribozyme variant]	52.5	3.99	4.01	7.75	7.05	6.15
AUUCACCUAGGUCAUCUAGUG [Fam2.2 aminoacylation ribozyme variant]	18.7	2.92	2.78	4.12	4.77	5.99
AUGCACCUAGGUCAUCGGGCG [Fam2.2 aminoacylation ribozyme variant]	13.5	2.08	2.47	2.53	2.37	3.22
AAUUUUGCUAAUCGUCGCAAG [Fam3.1 aminoacylation ribozyme variant]	2.37	1.91	1.56	1.62	1.53	1.37
AUUAGCCUGGUCAUCGUGUGA [Fam2.1 aminoacylation ribozyme variant]	21.6	1.96	2.07	4.27	3.38	3.17
